Source: PMC10188207
Each block holds one substance with its values, some of them ahead of it.

Columns and labels:
[1] = biological target: FoxP1 ZIP-lin-FKH (leucine zipper, linker and Forkhead domain, residues 342-548), unlabeled wild type (human) (UniProt Q9H334); test: SEC; Superdex 75 increase, 20 mM HEPES pH 7.8, 150 mM NaCl; unlabeled protein at 10 µM; molecular weight from a calibration curve with known proteins
[2] = biological target: FoxP1 ZIP(A356C)-lin-FKH labeled with BODIPY FL (human) (UniProt Q9H334); test: fluorescence polarisation; fluorescence anisotropy; 5 nM BODIPY FL-labeled single-cysteine protein titrated with its unlabeled wild-type construct (0-5000 nM ZIP-lin, 0-200 nM ZIP-lin-FKH), 37 °C; two-state model, monomer-dimer equilibrium; duplicates
[3] = biological target: FoxP1 ZIP(A356C)-lin-FKH labeled with BODIPY FL (human) (UniProt Q9H334); test: fluorescence polarisation; fluorescence anisotropy; 5 nM labeled monomer preincubated with 10 nM unlabeled DNA, then titrated with unlabeled wild-type ZIP-lin-FKH that was previously denatured to ensure the monomeric form; apparent KD; monomer-dimer equilibrium
[4] = biological target: FoxP1 ZIP-lin (leucine zipper domain with the linker, residues 342-462), unlabeled wild type (human) (UniProt Q9H334); test: SEC; Superdex 75 increase, 20 mM HEPES pH 7.8, 150 mM NaCl; unlabeled protein at 10 µM; molecular weight from a calibration curve with known proteins
[5] = biological target: FoxP1 ZIP(A356C)-lin labeled with BODIPY FL (human) (UniProt Q9H334); test: fluorescence polarisation; fluorescence anisotropy; 5 nM BODIPY FL-labeled single-cysteine protein titrated with its unlabeled wild-type construct (0-5000 nM ZIP-lin, 0-200 nM ZIP-lin-FKH), 37 °C; two-state model, monomer-dimer equilibrium; duplicates
FoxP1 FKH domain (human) = test: fluorescence anisotropy; settings: 200 nM labeled DNA, protein 0-500 nM; 'standard buffer' (composition, salt and pH not in material); dimerization assays at 37 C, DNA-binding temperature not stated; ex 480 nm, em 525 nm
[6] = system: FoxP1 ZIP-lin-FKH (human); test: fluorescence anisotropy; settings: 200 nM labeled DNA, protein 0-500 nM; 'standard buffer' (composition, salt and pH not in material); dimerization assays at 37 C, DNA-binding temperature not stated; ex 480 nm, em 525 nm

- stoichiometry N [1]: 2
- Kd [2]: 29 nM
- Kd [3]: 55 nM
Substance: FoxP1 ZIP-lin-FKH (leucine zipper, linker and Forkhead domain, residues 342-548), unlabeled wild type (from UniProt Q9H334 342-548) (domain or fragment)

- stoichiometry N [4]: 2
- Kd [5]: 123 nM
Substance: FoxP1 ZIP-lin (leucine zipper domain with the linker, residues 342-462), unlabeled wild type (from UniProt Q9H334 342-462) (domain or fragment)

Substance: FoxP1 FKH cognate DNA, Alexa488-labeled
- Kd (FoxP1 FKH domain (human)): 176 nM
- Kd [6]: 170 nM
